In paper PMC11342882 (Molecular Therapy. Methods & Clinical Development, 2024) one finds koff data, which are given here for one molecule.

As usually defined, the koff is the rate constant with which the complex falls apart.

In the assay the target is Delta-RBD (SARS-CoV-2, UniProt P0DTC2). As to the kind of experiment: BLI. On the technique in general: In BLI a coated tip is dipped into the sample, and binding shifts an interference pattern.

B1: sACE2_(2).S14-IgG1 (Fc fusion)
chain: QSTIEEQAKYFLDKFNHEAEDLFYQSSLASWNYNTNITEENVQNMNNAGDKWSAFLKEQSTTAQMYPLQEIQNLTVKLQLQALQQNGSSVLSEDKSKRLNTILNTMSTIYSTGKVCNPDNPQECLLLEPGLNEIMANSLDYNERLWAWESWRSEVGKQLRPLYEEYVVLKNEMARANHYEDYGDYWRGDYEVNGVDGYDYSRGQLIEDVEHTFEEIKPLYEHLHAYVRAKLMNAYPSYISPIGCLPAHLLGDMWGRFWTNLYSLTVPFGQKPNIDVTDAMVDQAWDAQRIFKEAEKFFVSVGLPNMTQGFWEYSMLTDPGNVQKAVCHPTAWDLGKGDFRILMCTKVTMDDFLTAHHEMGHIQYDMAYAAQPFLLRNGANEGFHEAVGEIMSLSAATPKHLKSIGLLSPDFQEDNETEINFLLKQALTIVGTLPFTYMLEKWRWMVFKGEIPKDQWMKKWWEMKREIVGVVEPVPHDETYCDPASLFHVSNDYSFIRYYTRTLYQFQFQEALCQAAKHEGPLHKCDISNSTEAGQKLFNMLRLGKSEPWTLALENVVGAKNMNVRPLLNYFEPLFTWLKDQNKNSFVGWSTDWSPYADQSIKVRISLKSALGDKAYEWNDNEMYLFRSSVAYAMRQYFLKVKNQTILFGEEDVRVANLKPRISFNFFVTAPKNVSDIIPRTEVEKAIRMSRSRINDAFRLNDSSLEFLGIQPTLG
In the case of B1, the koff was 0.00087 s⁻¹.
